Source: article PMC9556784
pKd: −log10 of the molar value.

How the values were obtained:
[1] = test system: PilW soluble domain (Clostridioides difficile R20291?); test: EMSA; details: 25C: 10 ng DNA in 10 ul, 10 mM Tris-HCl pH 8.5, 50 mM NaCl, 1 mg/ml BSA, 30 min, 1.5% agarose; 4C: 500 ng DNA in 10 ul, 20 mM Tris-HCl pH 8.3, 100 mM NaCl …
[2] = test system: PilJ soluble domain (Clostridioides difficile R20291?); test: EMSA; details: 25C: 10 ng DNA in 10 ul, 10 mM Tris-HCl pH 8.5, 50 mM NaCl, 1 mg/ml BSA, 30 min, 1.5% agarose; 4C: 500 ng DNA in 10 ul, 20 mM Tris-HCl pH 8.3, 100 mM NaCl …

**Q.** Which results are given for plasmid DNA (25C EMSA)?
**A.** pKd [1]: 4.84; pKd [2]: 5.66
